The values that follow come from paper PMC9646525, “Cryo-EM structure of the SEA complex” (Nature, 2022).

This series concerns the molecule itself. In words: cryo-EM structure; endogenous SEAC purified from yeast via Sea4-TAP (IgG Dynabeads, TEV elution in 20 mM HEPES-NaOH pH 7.4, 300 mM NaCl, 2 mM DTT), on graphene-oxide-coated grids.

B1: Sea4-TAP (natural protein, UniProt P38164 1-1038, looked up)
chain: MGLIKKVTHWSYDNLIDYLSVNPTRDEVTHYKVDPENESDESIIKLHTVKDFGSITCLDYSESEIGMIGVGEKNGYLRIFNISGQNSSSPASHAPVGLNANNETSMTNASGGKAAQAENIVGSVSNLKDTQGYPVSETNYDIRVRAKKQRCINSLGINTNGLIAMGLDRNKHDSSLQIWDMNYHDDSHETINPMFSYCTNESIVSLKFLNDTSVLAASTKFLKEIDVRSPNPIYQHPTRLTYDIKLNPFNDWQFSTYGDDGTLAIWDRRKLSDQASLGDLNVASPLLTFEKLVGSGAASRKYMNSCFRWSCVRNNEFATLHRGDTIKRWRLGYYCDSNRDIAADDDNEMNIENLFVSSVHDTNTMYDRVATFDYIPRSNNGTSLICMRQSGTIYRMPISEVCSKAILNNRNSLLLSNFENTEIDEIRVNNEHEKSNLENVKTILKNLSFEDLDVSEDYFPSGHDEPNNEIEYSELSEEENEGSNDVLDSKRGFELFWKPEKLLEKDISVIMRTRASLGYGLDPMNTVEMIDSSKNLQNNAYIRNTWRWIAIAKASVDDGTMVSGDLDLGYEGVIGIWNGINGISNQDRYRQETILSDKQLNKEMEKIIKLRRKNRDRNSPIANAAGSPKYVQRRLCLIISGWDLSRSDYEDKYNIIMKNGHYEKAAAWAVFFGDIPKAVEILGSAKKERLRLIATAIAGYLAYKDLPGNNAWRQQCRKMSSELDDPYLRVIFAFIADNDWWDILYEPAISLRERLGVALRFLNDTDLTTFLDRTSSTVIENGELEGLILTGITPNGIDLLQSYVNKTSDVQSAALISIFGSPRYFRDQRVDEWIQTYRDMLKSWELFSMRARFDVLRSKLSRTKTGVLTADIKPRQIYIQCQNCKQNINTPRTSSPSSAVSTSAGNYKNGEAYRRNNADYKKFNTGSSEAQAADEKPRHKYCCPHCGSSFPRCAICLMPLGTSNLPFVINGTQSRDPMQTEDSQDGANRELVSRKLKLNEWFSFCLSCNHGMHAGHAEEWFDRHNVCPTPGCTCQCNK
notes: Sea4, S. cerevisiae, endogenous subunit of the SEAC (SEACAT, core), TAP-tagged; Captured by the TAP tag on IgG beads; the complex was released with TEV protease before SDS-PAGE and cryo-EM; Written 'Sea4-TAP'; Four copies in the SEAC; source: endogenous, yeast cells expressing Sea4-TAP; in lysate, purified on IgG-coupled Dynabeads and eluted with TEV protease
As to B1, the stoichiometry N – broadly, a count of units in the complex or per binding partner – was found to be 4.
